Laboratory results published in patent US20130273073A1 (University of California, published 2013).

Key:
human ROR1 [1] = molecular target: T1, human ROR1 (human, UniProt Q01973 30-406); experiment: cross blocking, competitor D10
T1 construct: The immunogen was the extracellular portion (AA 1-406); also called hROR1; ROR1 protein

[2] = molecular target: human ROR1 with the isoleucine at position 111 replaced with the murine asparagine (human, UniProt Q01973 30-406, limits assumed); experiment: murinized residue screen, western blot
Protocol: (§1) As a second level screen, a series of deletion constructs were generated to determine the actual extracellular ROR1 domain to which the mAbs bind. […] As a final step, the actual amino acids targeted by these antibodies were determined. For this final screen, murinized human amino acids in the sub-domain fragments were generated to determine critical residues required for mAb binding (FIG. 15).

human ROR1 [3] = molecular target: T1, human ROR1; experiment: standard techniques, method not stated (FIG. 16B)
murine ROR1 = molecular target: T2, murine ROR1 (murine, UniProt Q9Z139 30-406, limits assumed); experiment: screen for binding to human and murine ROR1
T2 construct: also called mouse ROR1

human ROR1 [4] = molecular target: T1, human ROR1; experiment: binding site mapping
Protocol: as §1

human ROR1 [5] = molecular target: T1, human ROR1; experiment: standard techniques, method not stated (FIG. 16A)
[6] = molecular target: human ROR1 with the glutamic acid at position 138 replaced with the murine lysine (human, UniProt Q01973 30-406, limits assumed); experiment: murinized residue screen, western blot
Protocol: as §1

T1 sequence (Q01973 30-406 limits assumed): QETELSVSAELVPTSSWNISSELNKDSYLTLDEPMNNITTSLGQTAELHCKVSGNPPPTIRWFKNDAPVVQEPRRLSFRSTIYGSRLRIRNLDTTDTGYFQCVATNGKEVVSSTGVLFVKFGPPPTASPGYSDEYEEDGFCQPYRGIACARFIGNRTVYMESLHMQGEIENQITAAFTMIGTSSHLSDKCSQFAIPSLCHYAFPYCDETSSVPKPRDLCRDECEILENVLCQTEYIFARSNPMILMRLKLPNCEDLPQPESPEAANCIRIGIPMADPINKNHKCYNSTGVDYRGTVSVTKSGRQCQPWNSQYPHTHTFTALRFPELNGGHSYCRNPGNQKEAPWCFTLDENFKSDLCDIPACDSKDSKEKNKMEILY
T2 sequence (Q9Z139 30-406 limits assumed): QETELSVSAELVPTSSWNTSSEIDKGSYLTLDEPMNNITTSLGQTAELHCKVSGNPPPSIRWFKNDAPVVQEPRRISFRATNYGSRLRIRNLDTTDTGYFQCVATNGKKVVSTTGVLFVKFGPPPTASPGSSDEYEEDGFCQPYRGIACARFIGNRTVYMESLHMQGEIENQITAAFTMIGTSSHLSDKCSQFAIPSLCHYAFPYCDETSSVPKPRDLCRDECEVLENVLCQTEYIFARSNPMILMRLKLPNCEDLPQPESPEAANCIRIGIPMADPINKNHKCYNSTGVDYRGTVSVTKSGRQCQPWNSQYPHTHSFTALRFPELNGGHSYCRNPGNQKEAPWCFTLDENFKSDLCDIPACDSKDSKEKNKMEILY
Chain of human ROR1 with the glutamic acid at position 138 replaced with the murine lysine (Q01973 30-406 E138K limits assumed): as the sequence (Q01973 30-406 limits assumed) above, with E109K counted along it
Chain of human ROR1 with the isoleucine at position 111 replaced with the murine asparagine (Q01973 30-406 I111N limits assumed): as the sequence (Q01973 30-406 limits assumed) above, with I82N counted along it

binding result (human ROR1 [1])	binding result (human ROR1 [4])	Binder	other results
–	binds	G11 mouse anti-ROR1 mAb (antibody, V domains shown) VH: EVKLVESGGGLVKPGGSLKLSCAASGFTFSSYAMSWVRQTPEKRLEWVASISTGASAYFPDSVKGRFTISRDNARNILYLQMSSLRSEDTAMYYCARITTSTWYFDVWGAGTTVTVSS VL: DIKMTQSPSSMYASLGERVTITCKASQDINSYLSWFQQKPGKSPKTLIYRANRLVDGVPSRFSGSGSGQDYSLTISSLEYEDMGIYYCLQYDEFPYTFGGGTKLEIK	–
–	binds	H10 mouse anti-ROR1 mAb (antibody, V domains shown) VH: EVKLVESGGGLVKPGGSLKLSCAASGFTFSSYAMSWVRQTPEKRLEWVASISTGASAYFPDSVKGRFTISRDNARNILYLQMSSLRSEDTAMYYCARITTSTWYFDVWGAGTTVTVSS VL: DIKMTQSPSSMYASLGERVTITCKASQDINSYLSWFQQKPGKSPKTLIYRANRLVDGVPSRFSGSGSGQDYSLTISSLEYEDMGIYYCLQYDEFPYTFGGGTKLEIK	–
–	binds	G3 mouse anti-ROR1 mAb (antibody, V domains shown) VH: QVQLQQPGAELVKPGTSVKLSCKASGYNFTNYWINWVKLRPGQGLEWIGEIYPGSGSTNYNEKFKSKATLTADTSSSTAYMQLSSLASEDSALYYCARDGNYYAMDYWGQGTSVTVSS VL: DIQMTQTTSSLSASLGDRVTITCRASQDINNYLNWYQQKPDGTVKLLIYYTSALHSGVPSRFSGSGSGTDYSLTISNLEQEDIATYFCQQGNTLPPYTFGGGTKLEIK	–

Second part, the binder before the results:

Binder	binding result (human ROR1 [1])	binding result (human ROR1 [4])	other results
F2 mouse anti-ROR1 mAb (antibody, V domains shown) VH: EVQLQQSGPELEKPGASVKISCKASGFAFTGYNMNWVKQTNGKSLEWIGSIDPYYGGSTYNQKFKDKATLTVDKSSSTAYMQLKSLTSDDSAVYYCARSPGGDYAMDYWGQGTSVTVSS VL: DIKMTQSPSSMYASVGERVTITCKASQGINSYSGWFQQKPGKSPKTLIYRGNRLVDGVPSRFSGSGSGQDYSLTISSLEYEDMGIYYCLQYDEFPYTFGGGTKLEIK	binds	–	–
F12 mouse anti-ROR1 mAb (antibody, V domains shown) VH: EVQLQQSGPELEKPGASVKISCKASGFAFTGYNMNWVKQTNGKSLEWIGSIDPYYGGSTYNQKFKDKATLTVDKSSSTAYMQLKSLTSDDSAVYYCARSPGGDYAMDYWGQGTSVTVSS VL: DIKMTQSPSSMYASVGERVTITCKASQGINSYSGWFQQKPGKSPKTLIYRGNRLVDGVPSRFSGSGSGQDYSLTISSLEYEDMGIYYCLQYDEFPYTFGGGTKLEIK	binds	–	–
G6 mouse anti-ROR1 mAb (antibody, V domains shown) VH: EVQLQQSGPELEKPGASVKISCKASGFAFTGYNMNWVKQTNGKSLEWIGSIDPYYGGSTYNQKFKDKATLTVDKSSSTAYMQLKSLTSDDSAVYYCARSPGGDYAMDYWGQGTSVTVSS VL: DIKMTQSPSSMYASVGERVTITCKASQGINSYSGWFQQKPGKSPKTLIYRGNRLVDGVPSRFSGSGSGQDYSLTISSLEYEDMGIYYCLQYDEFPYTFGGGTKLEIK	binds	–	–
4A5 mouse anti-ROR1 mAb (antibody, V domains shown, also called 4A5 mAb; anti-ROR1 antibody 4A5) VH: EVKLVESGGGLVKPGGSLKLSCAASGFTFSSYAMSWVRQIPEKRLEWVASISRGGTTYYPDSVKGRFTISRDNVRNILYLQMSSLRSEDTAMYYCGRYDYDGYYAMDYWGQGTSVTVSS VL: DIKMTQSPSSMYASLGERVTITCKASPDINSYLSWFQQKPGKSPKTLIYRANRLVDGVPSRFSGGGSGQDYSLTINSLEYEDMGIYYCLQYDEFPYTFGGGTKLEMK	–	–	binding result [2]: no binding; Kd (human ROR1 [3]): 4 nM; binding result (murine ROR1): no binding
D10 mouse anti-ROR1 mAb (antibody, V domains shown, also called D10 mAb; anti-ROR1 antibody D10) VH: QVQLKESGPGLVAPSQTLSITCTVSGFSLTSYGVHWVRQPPGKGLEWLGVIWAGGFTNYNSALKSRLSISKDNSKSQVLLKMTSLQTDDTAMYYCARRGSSYSMDYWGQGTSVTVSS VL: EIVLSQSPAITAASLGQKVTITCSASSNVSYIHWYQQRSGTSPRPWIYEISKLASGVPVRFSGSGSGTSYSLTISSMEAEDAAIYYCQQWNYPLITFGSGTKLEIQ	–	–	Kd (human ROR1 [5]): 40 nM; binding result [6]: no binding; binding result (murine ROR1): no binding
